Test results from US20260184782A1 (TWIST BIOSCIENCE, published 2026).
Residue numbers refer to the chain shown, from its start.

T1: recombinant human TIGIT (human, UniProt Q495A1 22-141, limits assumed)
T1 construct: recombinant human TIGIT used in Carterra SPR; also called hTIGIT
T1 sequence (looked up): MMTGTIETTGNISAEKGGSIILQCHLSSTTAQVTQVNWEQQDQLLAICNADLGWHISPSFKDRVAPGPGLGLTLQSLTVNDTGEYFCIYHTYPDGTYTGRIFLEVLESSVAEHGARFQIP

B1: TIGIT-SC84 (Fc fusion)
VHH: EVQLVESGGGLVQPGGSLRLSCAASGGTFTIYPMGWFRQAPGKEREWVAGINEYGGRYADSVKGRFTISADNSKNTAYLQMNSLKPEDTAVYYCARDLNAMGDAYDIWGQGTLVTVSS
notes: VHH-Fc fusion in assay
B2: TIGIT-SC54 (Fc fusion)
VHH: EVQLVESGGGLVQPGGSLRLSCAASGFSFDDYVMGWFRQAPGKERELVAVIVGEAITRYADSVKGRFTISADNSKNTAYLQMNSLKPEDTAVYYCARRGGSGRAFDIWGQGTLVTVSS
notes: VHH-Fc fusion in assay
B3: TIGIT-SC117 (Fc fusion)
VHH: EVQLVESGGGLVQPGGSLRLSCAASGNTFSGGFMGWFRQAPGKEREWVASVLRGGYTWYADSVKGRFTISADNSKNTAYLQMNSLKPEDTAVYYCDAADYWGQGTLVTVSS
notes: VHH-Fc fusion in assay
B4: TIGIT-SC57 (Fc fusion)
VHH: B3 VHH with D96T, A97T, A98Y, D99R, Y100G
notes: VHH-Fc fusion in assay
B5: TIGIT-SC115 (Fc fusion)
VHH: B3 VHH with D96A, A97G, A98T, D99G, Y100L
notes: VHH-Fc fusion in assay
B6: TIGIT-SC116 (Fc fusion)
VHH: B3 VHH with N27F, G31P, G32S, F33W
notes: VHH-Fc fusion in assay
B7: TIGIT-SC121 (Fc fusion)
VHH: EVQLVESGGGLVQPGGSLRLSCAASGFTFSPSWMGWFRQAPGKEREWVASVLRGGYTWYADSVKGRFTISADNSKNTAYLQMNSLKPEDTAVYYCTTEGFDPWGQGTLVTVSS
notes: VHH-Fc fusion in assay
B8: TIGIT-SC60 (Fc fusion)
VHH: B7 VHH with T96A, T97R, E98D, G99D, F100L, P102Y
notes: VHH-Fc fusion in assay
B9: TIGIT-SC98 (Fc fusion)
VHH: B7 VHH with F27N, P31G, S32G, W33F
notes: VHH-Fc fusion in assay
B10: TIGIT-SC111 (Fc fusion)
VHH: B7 VHH with F27D, P31G, S32G, W33F, T97R, E98G, F100M, P102V
notes: VHH-Fc fusion in assay
B11: TIGIT-SC187 (Fc fusion)
VHH: B7 VHH with E98D, G99S, F100L, D101P, P102G
notes: VHH-Fc fusion in assay
B12: TIGIT-SC188 (Fc fusion)
VHH: B7 VHH with F27N, P31G, S32G, W33F, E98D, G99S, F100L, D101P, P102G
notes: VHH-Fc fusion in assay
B13: TIGIT-SC46 (Fc fusion)
VHH: EVQLVESGGGLVQPGGSLRLSCAASGRTFSNYVMGWFRQAPGKERELVASISSFGSTYYADSVKGRFTISADNSKNTAYLQMNSLKPEDTAVYYCARSGGFLSDWGQGTLVTVSS
notes: VHH-Fc fusion in assay
B14: TIGIT-SC31 (Fc fusion)
VHH: EVQLVESGGGLVQPGGSLRLSCAASGRAFESYAMGWFRQAPGKERELVATIGWSGTDYADSVKGRFTISADNSKNTAYLQMNSLKPEDTAVYYCAKGYTSGLSDWGQGTLVTVSS
notes: VHH-Fc fusion in assay
B15: TIGIT-SC51 (Fc fusion)
VHH: EVQLVESGGGLVQPGGSLRLSCAASGRTEANYAMGWFRQAPGKEREFVAAISWDGGATAYADSVKGRFTISADNSKNTAYLQMNSLKPEDTAVYYCGDYEGHWGQGTLVTVSS
notes: VHH-Fc fusion in assay

Molecular target: T1, recombinant human TIGIT
Test: SPR Carterra, average
Protocol: Binding affinities of VHH-Fc proteins to recombinant human TIGIT were measured by SPR using a Carterra instrument (Table 10A). […] Average values reported from measurements from 1-2 samples.

| Binder | Kd [nM] | koff [s⁻¹] | kon [M⁻¹ s⁻¹] |
| --- | --- | --- | --- |
| B1 | ≤ 3.15 | ≤ 1e-05 | 3180 |
| B2 | 3.71 | 0.00982 | 3e+06 |
| B3 | 9.63 | 0.0012 | 125000 |
| B4 | 25.2 | 0.00511 | 149000 |
| B5 | 8.42 | 0.00241 | 262000 |
| B6 | 4.08 | 0.000696 | 209000 |
| B7 | 4.68 | 0.00112 | 344000 |
| B8 | 84.6 | 0.00184 | 21800 |
| B9 | 5.79 | 0.00137 | 237000 |
| B10 | 4.37 | 0.00743 | 1.7e+06 |
| B11 | 17.2 | 0.000586 | 34000 |
| B12 | 77.1 | 0.00309 | 42500 |
| B13 | 4.45 | 0.00416 | 1.01e+06 |
| B14 | 4.74 | 0.0062 | 1.31e+06 |
| B15 | 5.15 | 0.00981 | 2.1e+06 |
